Data on 16 molecules can be found in US20230279118A1 (published 2023).

The target of assay [1] is T1, canine FcRn (canine).
T1 construct: Injected in solution as SPR analyte
The assay can be described thus: SPR, pH 5.5, FcRn 400 nM over captured Fc. (In general: In SPR one partner is held on a chip, and binding of the other changes the refractive index at the surface.)

Assay [2] concerns the target T1, canine FcRn. The assay is described as follows: SPR, pH 5.5, FcRn 200 nM over captured Fc.
Assay [3] has as its target T1, canine FcRn. The assay is described as follows: SPR, pH 5.5, FcRn 100-800 nM over captured Fc.
Assay [4] concerns the target T1, canine FcRn. The assay is described as follows: SPR, pH 5.5, FcRn 200 nM over captured Fc. The source holds these as a separate data set.
Assay [5] deals with T1, canine FcRn. The assay is described as follows: SPR, pH 5.5, FcRn 200 nM over captured Fc. The source holds these as a separate data set.
The target in assay [6] is T1, canine FcRn. The assay can be described thus: SPR, pH 5.5, FcRn 200 nM over captured Fc. This is another data set of the same source.
The target in assay [7] is T1, canine FcRn. The assay is described as follows: SPR, pH 5.5, FcRn 200 nM over captured Fc. The source holds these as a separate data set.
Assay [8] concerns the target T1, canine FcRn. The assay can be described thus: SPR, pH 5.5, FcRn 200 nM over captured Fc. The source holds these as a separate data set.

Changes are numbered by the printed parent chain. Names and notes keep the numbering of the source. Values joined by “and” are separate entries in the source; they are usually repeats but may differ in a detail not shown here. Identical values can stand only once.

B1: canine IgG.B Fc variant E380A with SASA tag (Fc fusion)
chain: APEMLGGPSVFIFPPKPKDTLLIARTPEVTCVVVDLDPEDPEVQISWFVDGKQMQTAKTQPREEQFNGTYRVVSVLPIGHQDWLKGKQFTCKVNNKALPSPIERTISKARGQAHQPSVYVLPPSREELSKNTVSLTCLIKDFFPPDIDVAWQSNGQQEPESKYRTTPPQLDEDGSYFLYSKLSVDKSRWQRGDTFICAVMHEALHNHYTQESLSHSPGK
For the molecule B1, in the assay with canine FcRn [1], the Kd was 618 nM and 747 nM; the off-rate (koff) is 0.369 s⁻¹ and 0.18 s⁻¹; the kon is 598000 M⁻¹ s⁻¹ and 241000 M⁻¹ s⁻¹. Besides, in the assay with canine FcRn [2], the Kd is 1320 nM and 1570 nM; the koff is 0.223 s⁻¹ and 0.239 s⁻¹; the kon was 168000 M⁻¹ s⁻¹ and 152000 M⁻¹ s⁻¹.

B2: canine IgG.B Fc YTE variant (L252Y/A254T/T256E) with SASA tag (Fc fusion)
chain: B1 chain with L22Y, A24T, T26E, A150E
Turning to B2, in the assay with canine FcRn [3], the Kd came to 184 nM, the koff is 0.046 s⁻¹ and the kon was 250000 M⁻¹ s⁻¹.

B3: canine IgG.B Fc variant A254T with SASA tag (Fc fusion)
chain: B1 chain with A24T, A150E
Turning to B3, in the assay with canine FcRn [4], the Kd was 2290 nM and 1340 nM; the koff was 0.375 s⁻¹ and 0.433 s⁻¹; the kon was 163000 M⁻¹ s⁻¹ and 323000 M⁻¹ s⁻¹.

B4: canine IgG.B Fc variant G309A with SASA tag (Fc fusion)
chain: B1 chain with G79A, A150E
As to B4, the Kd with canine FcRn [1] is 245 nM and 294 nM.

B5: canine IgG.B Fc variant T250E with SASA tag (Fc fusion)
chain: B1 chain with T20E, A150E
Regarding B5, in the assay with canine FcRn [5], the Kd is 2480 nM and 1660 nM; the koff is 0.284 s⁻¹ and 0.287 s⁻¹; the on-rate constant (kon) was 114000 M⁻¹ s⁻¹ and 172000 M⁻¹ s⁻¹.

B6: canine IgG.B Fc variant P307A with SASA tag (Fc fusion)
chain: B1 chain with P77A, A150E
As for B6, in the assay with canine FcRn [1], the dissociation constant Kd is 325 nM and 338 nM.

B7: canine IgG.B Fc variant L252Y with SASA tag (Fc fusion)
chain: B1 chain with L22Y, A150E
On to B7, for which, in the assay with canine FcRn [6], the Kd was 98.7 nM and 114 nM; the koff is 0.0397 s⁻¹ and 0.041 s⁻¹; the kon was 402000 M⁻¹ s⁻¹ and 358000 M⁻¹ s⁻¹. In the assay with canine FcRn [3], this molecule showed a Kd of 173 nM, a koff of 0.0476 s⁻¹ and a kon of 275000 M⁻¹ s⁻¹.

B8: canine IgG.B Fc variant Q311A with SASA tag (Fc fusion)
chain: B1 chain with Q81A, A150E
As to B8, in the assay with canine FcRn [1], the equilibrium dissociation constant (Kd) was 368 nM and 370 nM; the koff was 0.894 s⁻¹ and 0.496 s⁻¹; the kon is 2.43e+06 M⁻¹ s⁻¹ and 1.34e+06 M⁻¹ s⁻¹.

B9: canine IgG.B Fc variant N434S with SASA tag (Fc fusion)
chain: B1 chain with A150E, N206S
B9: in the assay with canine FcRn [7], the equilibrium dissociation constant (Kd) was 924 nM and 1050 nM; the koff is 0.207 s⁻¹ and 0.209 s⁻¹; the kon was 225000 M⁻¹ s⁻¹ and 199000 M⁻¹ s⁻¹.

B10: canine IgG.B Fc variant T250Q with SASA tag (Fc fusion)
chain: B1 chain with T20Q, A150E
In the case of B10, in the assay with canine FcRn [5], the Kd is 2590 nM and 2840 nM; the koff is 0.258 s⁻¹ and 0.268 s⁻¹; the kon was 99600 M⁻¹ s⁻¹ and 94300 M⁻¹ s⁻¹.

B11: canine IgG.B Fc variant L252M with SASA tag (Fc fusion)
chain: B1 chain with L22M, A150E
Take B11: in the assay with canine FcRn [6], the Kd is 869 nM and 774 nM; the koff was 0.168 s⁻¹ and 0.169 s⁻¹; the kon was 193000 M⁻¹ s⁻¹ and 218000 M⁻¹ s⁻¹.

B12: canine IgG.B Fc variant L252A with SASA tag (Fc fusion)
chain: B1 chain with L22A, A150E
Take B12: the Kd with canine FcRn [1] is 292 nM and 240 nM.

B13: canine IgG.B Fc variant T286A with SASA tag (Fc fusion)
chain: B1 chain with T56A, A150E
B13: in the assay with canine FcRn [1], the dissociation constant (Kd) was 464 nM and 569 nM; the koff was 0.196 s⁻¹ and 0.304 s⁻¹; the kon was 422000 M⁻¹ s⁻¹ and 533000 M⁻¹ s⁻¹.

B14: canine IgG.B Fc variant N434Y with SASA tag (Fc fusion)
chain: B1 chain with A150E, N206Y
In the assay with canine FcRn [7], B14 registered a Kd of 15.9 nM, a koff of 0.00968 s⁻¹ and a kon of 607000 M⁻¹ s⁻¹. Further, in the assay with canine FcRn [3], binding was put at a Kd of 29.1 nM, the koff is 0.0151 s⁻¹ and the kon came out at 520000 M⁻¹ s⁻¹.

B15: canine IgG.B Fc variant T256A with SASA tag (Fc fusion)
chain: B1 chain with T26A, A150E
Take B15: the equilibrium dissociation constant (Kd) with canine FcRn [1] is 447 nM and 298 nM.

B16: canine IgG.B Fc variant D378V with SASA tag (Fc fusion)
chain: B1 chain with D148V, A150E
Turning to B16, in the assay with canine FcRn [8], the Kd is 693 nM and 873 nM; the dissociation rate constant (koff) is 0.159 s⁻¹ and 0.16 s⁻¹; the kon is 229000 M⁻¹ s⁻¹ and 184000 M⁻¹ s⁻¹.

By Kd is commonly meant a measure of binding affinity in units of concentration. Lower therefore signals a tighter complex. One may read the koff as a measure of how fast the partners let go of each other. What is called kon is the second-order rate constant of association. A higher kon goes with faster complex formation.
